# According to patent EP3470428A1 (Numab Innovation AG, dated 2019):
# Where “and” joins values, the source holds several entries; their conditions need not be identical. Identical values can stand only once. Like-named read-outs stand apart in the source and are kept apart here.
# Columns and labels:
# [1] = target: T1, human PD-L1 expressed on cells (human, UniProt Q9NZQ7 19-290); assay: cell-based or functional assay
# [2] = target: T2, human CD137 expressed on cells (human, UniProt Q07011 24-255); assay: cell-based or functional assay
# [3] = target: T2, human CD137 expressed on cells; assay: cell-based or functional assay; remark: listed apart in the source
# [4] = target: T2, human CD137 expressed on cells; assay: cell-based or functional assay; remark: listed apart in the source
# [5] = target: T2, human CD137 expressed on cells; assay: cell-based or functional assay; remark: listed apart in the source
# [6] = target: T2, human CD137 expressed on cells; assay: cell-based or functional assay; remark: listed apart in the source
# [7] = target: T2, human CD137 expressed on cells; assay: cell-based or functional assay; remark: listed apart in the source
# [8] = target: T2, human CD137 expressed on cells; assay: cell-based or functional assay; remark: listed apart in the source
# [9] = target: T2, human CD137 expressed on cells; assay: cell-based or functional assay; remark: listed apart in the source
# [10] = target: T2, human CD137 expressed on cells; assay: cell-based or functional assay; remark: listed apart in the source
# [11] = target: T2, human CD137 expressed on cells; assay: cell-based or functional assay; remark: listed apart in the source
# biotinylated human PD-L1 [12] = target: T3, biotinylated human PD-L1 (human, UniProt Q9NZQ7 19-238, limits assumed, biotinylated); assay: competition ELISA; coated human B7.1 as competitor; biotinylated PD-L1 pre-incubated with inhibitor
# T3 construct: also called biotinylated PD-L1
# biotinylated human PD-L1 [13] = target: T3, biotinylated human PD-L1; assay: competition ELISA; coated human PD-1 as competitor; biotinylated human PD-L1 pre-incubated with inhibitor
# [14] = target: T1, human PD-L1 expressed on cells; assay: cell-based or functional assay; remark: listed apart in the source
# human serum albumin = target: T4, human serum albumin (human, UniProt P02768 25-609); assay: SPR (Biacore T200); SA amine-coupled; pH 5.5
# T4 construct: Amine-coupled to a CM5 chip; assay at pH 5.5; also called HSA; human SA
# [15] = target: human PD-L1-Fc chimeric protein (human, UniProt Q9NZQ7 19-239); assay: SPR (Biacore T200); PD-L1-Fc captured by anti-human Fc
# [16] = target: T1, human PD-L1 expressed on cells; assay: cell-based or functional assay; remark: listed apart in the source
Binder,"IC50 (ng/ml), neutralization of PD-L1/PD-1 interaction, NFAT-luciferase reporter gene assay [1]","EC50 in ng/ml, CD137 activation, NFkB-luciferase Jurkat reporter assay, CHO-PD-L1 cells [2]","EC50 in ng/ml, CD137 activation, NFkB-luciferase Jurkat reporter assay, CHO-PD-L1 cells [3]","EC50 in ng/ml, CD137 activation, NFkB-luciferase Jurkat reporter assay, HCC827 cells without IFNg [4]","EC50 in ng/ml, CD137 activation, NFkB-luciferase Jurkat reporter assay, HCC827 cells stimulated with IFNg [5]","EC50 in ng/ml, CD137 activation, NFkB-luciferase Jurkat reporter assay, PD-L1 expressing CHO cells, 6h [6]","EC50 in ng/ml, CD137 activation, NFkB-luciferase Jurkat reporter assay, PD-L1 expressing CHO cells, 6h, + HSA [6]","EC50 in ng/ml, CD137 activation, NFkB-luciferase Jurkat reporter assay, PD-L1 expressing CHO cells, 24h [7]","EC50 in ng/ml, CD137 activation, NFkB-luciferase Jurkat reporter assay, PD-L1 expressing CHO cells, 24h, + HSA [7]","EC50 in ng/ml, CD137 activation, NFkB-luciferase Jurkat reporter assay, HCC827 with IFNy stimulation, 24h [8]","EC50 in ng/ml, CD137 activation, NFkB-luciferase Jurkat reporter assay, HCC827 without IFNy stimulation, 24h [8]","max. activation (%), NF-kB reporter gene, CHO-PD-L1; HSA: no [10]","max. activation (%), NF-kB reporter gene, HCC827 +IFNg; HSA: no [10]","max. activation (%), NF-kB reporter gene, HCC827 -IFNg; HSA: no [10]",IC50 (biotinylated human PD-L1 [12]),IC50 (biotinylated human PD-L1 [13]),other results
"PRO885: 38-02-A04 sc01 scDb-i/33-03-G02 sc01 scDb-o (bispecific antibody, anti-PD-L1xCD137 scDb, CDR grafts of both domains) DIQMTQSPSSLSASVGDRVTITCQASQSINDYLAWYQQKPGKAPKLLIYKASTLASGVPSRFSGSGSGTDFTLTISSLQPEDFATYYCQQGYIITDIDNVFGTGTKVTVLGGGGGSQVQLQESGPGLVKPSETLSLTCKVSGFSFSNSYWICWIRQPPGKGLEWIGCTFVGSSDSTYYANWAKGRVTISVDSSKNQFSLKLSSVTAADTAVYYCARHPSDAVYGYANNLWGQGTLVTVSSGGGGSGGGGSGGGGSGGGGSIQMTQSPSSLSASVGDRVTITCQASQSINNVLAWYQQKPGKAPKLLIYRASTLASGVPSRFSGSGSGTDFTLTISSLQPEDFATYYCQSSYGNYGDFGTGTKVTVLGGGGGSQVQLQESGPGLVKPSETLSLTCKVSGFSFSSGYDMCWIRQPPGKGLEWIGCVVAGSVDITYYASWAKGRVTISVDSSKNQFSLKLSSVTAADTAVYYCARKDAYSDAFNLWGQGTLVTVSS",137 ng/mL,11.7 ng/mL,5.13 ng/mL and 4.86 ng/mL and 6.3 ng/mL,11.5 ng/mL and 13.1 ng/mL and 13 ng/mL,9.27 ng/mL and 8.88 ng/mL and 9.23 ng/mL,7.84 ng/mL,7.92 ng/mL,13.8 ng/mL,14.8 ng/mL,7.51 ng/mL,9.52 ng/mL,499%,134%,111%,0.0122 µg/mL,0.00835 µg/mL,"EC50 (ng/ml), IL-2 secretion by PBMC; anti-CD3 1 ug/ml, 50000 PD-L1 expressing CHO cells/well [9]: 12.8 ng/mL; EC50 (ng/ml), IL-2 secretion by PBMC; anti-CD3 1 ug/ml, 100000 PD-L1 expressing CHO cells/well [9]: 86.2 ng/mL; EC50 (ng/ml), IL-2 secretion by PBMC; anti-CD3 1 ug/ml, 200000 PD-L1 expressing CHO cells/well [9]: 80.6 ng/mL; EC50 (ng/ml), IL-2 secretion by PBMC; anti-CD3 2 ug/ml, 50000 PD-L1 expressing CHO cells/well [9]: 52 ng/mL; EC50 (ng/ml), IL-2 secretion by PBMC; anti-CD3 2 ug/ml, 100000 PD-L1 expressing CHO cells/well [9]: 41.9 ng/mL; EC50 (ng/ml), IL-2 secretion by PBMC; anti-CD3 2 ug/ml, 200000 PD-L1 expressing CHO cells/well [9]: 30.1 ng/mL; EC50 in ng/ml, IL-2 secretion, PBMC stimulated with SEA [11]: 39.9 ng/mL"
"PRO1126: 38-02-A04 sc01 scDb-i/33_03_G02 sc03 Full scDb-o (bispecific antibody, scDb, STR graft of the PD-L1 domain) DFQLTQSPSSLSASVGDRVTITCQASQSINDYLAWYQQKPGKSPKLLIYKASTLASGVPSRFSGSGSGTDFTLTISSLQPEDFATYYCQQGYIITDIDNVFGTGTKVTVLGGGGGSQVQLQESGPGLVKPSETLSLTCKVSGFSFSNSYWICWIRQPPGKGLEWIGCTFVGSSDSTYYANWAKGRVTISVDSSKNQFSLKLSSVTAADTAVYYCARHPSDAVYGYANNLWGQGTLVTVSSGGGGSGGGGSGGGGSGGGGSIQMTQSPSSLSASVGDRVTITCQASQSINNVLAWYQQKPGKAPKLLIYRASTLASGVPSRFSGSGSGTDFTLTISSLQPEDFATYYCQSSYGNYGDFGTGTKVTVLGGGGGSQSQLQESGPGLVKPSETLSLTCKASGFSFSSGYDMCWVRQPPGKGLEWIACVVAGSVDITYYASWAKGRVTISKDSSKNQVSLKLSSVTAADTAVYFCARKDAYSDAFNLWGQGTLVTVSS",,,6 ng/mL,6.97 ng/mL,5.48 ng/mL,,,,,,,242%,208%,135%,,0.00128 µg/mL,"IC50, neutralization of PD-L1/PD-1 interaction, NFAT-luciferase reporter gene assay [14]: 0.0481 µg/mL"
"PRO951: 38-27-C05 sc02 scDb-i/33-03-G02 sc01 scDb-o (bispecific antibody, anti-PD-L1xCD137 scDb) DIQMTQSPSSLSASVGDRVTITCQASQSINDYLAWYQQKPGKAPKLLIYKASTLASGVPSRFSGSGSGTDFTLTISSLQPEDFATYYCQQGYIITDIDNVFGTGTKVTVLGGGGGSEVQLVESGGGLVQPGGSLRLSCAASGFSFNNDYDMCWVRQAPGKGLEWIGCIDTGDGSTYYASWAKGRFTISRDNSKNTVYLQMNSLRAEDTAVYYCAREAASSSGYGMGYFDLWGQGTLVTVSSGGGGSGGGGSGGGGSGGGGSIQMTQSPSSLSASVGDRVTITCQSSQSVYDNNWLAWYQQKPGKAPKLLIYRASNLASGVPSRFSGSGSGTDFTLTISSLQPEDFATYYCQGTYLSSNWYWAFGTGTKVTVLGGGGGSQVQLQESGPGLVKPSETLSLTCKVSGFSFSSGYDMCWIRQPPGKGLEWIGCVVAGSVDITYYASWAKGRVTISVDSSKNQFSLKLSSVTAADTAVYYCARKDAYSDAFNLWGQGTLVTVSS",88.5 ng/mL,33.7 ng/mL,,,,,,,,,,432%,,,0.0093 µg/mL,0.0095 µg/mL,
"PRO1058: 38_27_C05 sc01 scDb-i/33-03-G02 sc01 scDb-o/mxr HSA (23-13-A01-sc03, sk17sh4) (other, Trispecific scTriabody (scDb-scFv)) DIQMTQSPSSLSASVGDRVTITCQASQSINDYLAWYQQKPGKAPKLLIYKASTLASGVPSRFSGSGSGTDFTLTISSLQPEDFATYYCQQGYIITDIDNVFGTGTKVTVLGGGGGSQVQLQESGPGLVKPSETLSLTCKVSGFSFNNDYDMCWIRQPPGKGLEWIGCIDTGDGSTYYASWAKGRVTISVDSSKNQFSLKLSSVTAADTAVYYCAREAASSSGYGMGYFDLWGQGTLVTVSSGGGGSGGGGSGGGGSGGGGSIQMTQSPSSLSASVGDRVTITCQSSQSVYDNNWLAWYQQKPGKAPKLLIYRASNLASGVPSRFSGSGSGTDFTLTISSLQPEDFATYYCQGTYLSSNWYWAFGTGTKVTVLGGGGGSQVQLQESGPGLVKPSETLSLTCKVSGFSFSSGYDMCWIRQPPGKGLEWIGCVVAGSVDITYYASWAKGRVTISVDSSKNQFSLKLSSVTAADTAVYYCARKDAYSDAFNLWGQGTLVTVSSGGGGSGGGGSVVMTQSPSSLSASVGDRVTITCQASQIISSRSAWYQQKPGQPPKLLIYQASKLASGVPSRFSGSGSGTDFTLTISSLQPEDFATYYCQCTYIDSNFGAFGGGTKLTVLGGGGGSGGGGSGGGGSGGGGSEVQLVESGGGLVQPGGSLRLSCAASGFSFSSSYWICWVRQAPGKGLEWVGCVFTGDGTTYYASWAKGRFTISRDNSKNTVYLQMNSLRAEDTATYFCARPVSVYYYGMDLWGQGTLVTVSS",,,,,,,70.9 ng/mL,,121 ng/mL,,,,,,,,"max. activation (%), NF-kB reporter gene, CHO-PD-L1; HSA: yes, 24h [10]: 36.2%; binding result (human serum albumin): binds; binding result [15]: binds"
"PRO997 (anti-PD-L1 scFv, CDR set of clone 37-20-B03 grafted on a VH4 framework) (scFv) DIQMTQSPSSLSASVGDRVTITCQASQSIGTYLAWYQQKPGKAPKLLIYRAFILASGVPSRFSGSGSGTDFTLTISSLQPEDFATYYCQSNFYSDSTTIGPNAFGTGTKVTVLGGGGGSGGGGSGGGGSGGGGSQVQLQESGPGLVKPSETLSLTCKVSGFSFNSDYWIYWIRQPPGKGLEWIGSIYGGSSGNTQYASWAQGRVTISVDSSKNQFSLKLSSVTAADTAVYYCARGYVDYGGATDLWGQGTLVTVSS",11.1 ng/mL,,,,,,,,,,,,,,0.00636 µg/mL,0.0005 µg/mL,"EC50 in ng/ml, IL-2 secretion, PBMC stimulated with SEA [16]: 40.9 ng/mL; fold higher affinity against the STR graft of clone 33-03-G02 [15]: ~2 fold"
"Urelumab (antibody, V domains shown) VH: QVQLQQWGAGLLKPSETLSLTCAVYGGSFSGYYWSWIRQSPEKGLEWIGEINHGGYVTYNPSLESRVTISVDTSKNQFSLKLSSVTAADTAVYYCARDYGPGNYDWYFDLWGRGTLVTVSS VL: EIVLTQSPATLSLSPGERATLSCRASQSVSSYLAWYQQKPGQAPRLLIYDASNRATGIPARFSGSGSGTDFTLTISSLEPEDFAVYYCQQRSNWPPALTFGGGTKVEIK",,79.1 ng/mL,79.5 ng/mL and 104 ng/mL and 86.5 ng/mL,212 ng/mL and 110 ng/mL and 112 ng/mL,114 ng/mL and 145 ng/mL and 108 ng/mL,56.5 ng/mL,77.7 ng/mL,46.6 ng/mL,78.2 ng/mL,52.8 ng/mL,47.5 ng/mL,,,,,,
